Reference: publication PMC4270787 (PLoS ONE, 2014)

B1: PLA2 CM-II from N. kaouthia venom (enzyme)
chain: NLYQFKNMIQCTVPNRSWWDFADYGCYCGRGGSGTPVDDLDRCCQVHDNCYNEAEKISRCWPYFKTYSYECSQGTLTCKGDNDACAAAVCDCDRLAAICFAGAPYNNNNYNIDLKARCQ
B2: PLA2 Vur-PL2 from V. ursinii venom (enzyme)
chain: NLYQFGKMIRYKTGKSALLSYSDYGCYCGWGGQGKPKDATDRCCFVHDCCYGRVNGCDPKLTIYSYSFENGDIVCGGDDSCKRAVCECDRVAAICFGENLNTYDKKYKNYPSSQCTETEQC
B3: PLA2 vurtoxin from V. ursinii venom (enzyme)
chain: SLLEFGMMILEETGKNPLTSYSFYGCYCGVGGKGTPKDATDRCCFVHDCCYGNLPDCNPKIDRYKYHRKNGAIVCGKGTSCENRICECDRAAAICFRKNLKTYNHIYKYYPDFLCKKESEKC

Assays:
Assay in all cases: radioligand binding
[1] = target: acetylcholine-binding protein from Aplysia californica (A. californica)
[2] = target: T1, human neuronal α7 nicotinic acetylcholine receptor (human, UniProt P36544 23-502); settings: one partner purified
T1 construct: also called human α7 nAChR; α7 nAChR

[3] = target: T2, T. californica muscle-type nicotinic acetylcholine receptor (T. californica, UniProt P02710 25-461; P02712 25-493; P02714 18-506; P02718 22-522); settings: one partner purified
T2 construct: also called T. californica nAChR; Torpedo nAChR

[4] = target: T3, acetylcholine-binding protein from L. stagnalis (L. stagnalis, UniProt P58154 20-229); settings: both partners purified
T3 construct: also called L. stagnalis AChBP

Row | Molecule | IC50 [1] [µM] | IC50 [2] [µM] | IC50 [3] [nM] | IC50 [4] [µM]
1 | PLA2 vurtoxin from V. ursinii venom (from UniProt F8QN54 17-138) (enzyme) | > 30 |  |  | 
2 | PLA2 CM-II from N. kaouthia venom (from UniProt P00596 28-146) (enzyme) | > 100 |  |  | 
3 | B1 |  | 3.2 ± 0.3 | 1200 ± 100 | 1 ± 0.03
4 | B2 |  | 29 ± 2 | > 100000 | > 30
5 | B3 |  | 14 ± 5 | 260 ± 20 | > 30
